Reference: US20170198056A1 (MEDICINAL CHEMISTRY PHARMACEUTICALS, published 2017)

Target: T1, MUC1 expressed on breast cancer cells (OCUB-M, MCF-7) (human, UniProt P15941 24-1255, native O-glycosylation of the cancer cells, not defined)
T1 construct: whole, on cells; OCUB-M cells were fixed and treated with Triton X-100; MCF-7 cells were fixed with formaldehyde; also called MUC1 expressing cells
Experiment: immunofluorescence staining of fixed OCUB-M breast cancer cells, 10 ug/mL antibody

T1 sequence (P15941 24-1255): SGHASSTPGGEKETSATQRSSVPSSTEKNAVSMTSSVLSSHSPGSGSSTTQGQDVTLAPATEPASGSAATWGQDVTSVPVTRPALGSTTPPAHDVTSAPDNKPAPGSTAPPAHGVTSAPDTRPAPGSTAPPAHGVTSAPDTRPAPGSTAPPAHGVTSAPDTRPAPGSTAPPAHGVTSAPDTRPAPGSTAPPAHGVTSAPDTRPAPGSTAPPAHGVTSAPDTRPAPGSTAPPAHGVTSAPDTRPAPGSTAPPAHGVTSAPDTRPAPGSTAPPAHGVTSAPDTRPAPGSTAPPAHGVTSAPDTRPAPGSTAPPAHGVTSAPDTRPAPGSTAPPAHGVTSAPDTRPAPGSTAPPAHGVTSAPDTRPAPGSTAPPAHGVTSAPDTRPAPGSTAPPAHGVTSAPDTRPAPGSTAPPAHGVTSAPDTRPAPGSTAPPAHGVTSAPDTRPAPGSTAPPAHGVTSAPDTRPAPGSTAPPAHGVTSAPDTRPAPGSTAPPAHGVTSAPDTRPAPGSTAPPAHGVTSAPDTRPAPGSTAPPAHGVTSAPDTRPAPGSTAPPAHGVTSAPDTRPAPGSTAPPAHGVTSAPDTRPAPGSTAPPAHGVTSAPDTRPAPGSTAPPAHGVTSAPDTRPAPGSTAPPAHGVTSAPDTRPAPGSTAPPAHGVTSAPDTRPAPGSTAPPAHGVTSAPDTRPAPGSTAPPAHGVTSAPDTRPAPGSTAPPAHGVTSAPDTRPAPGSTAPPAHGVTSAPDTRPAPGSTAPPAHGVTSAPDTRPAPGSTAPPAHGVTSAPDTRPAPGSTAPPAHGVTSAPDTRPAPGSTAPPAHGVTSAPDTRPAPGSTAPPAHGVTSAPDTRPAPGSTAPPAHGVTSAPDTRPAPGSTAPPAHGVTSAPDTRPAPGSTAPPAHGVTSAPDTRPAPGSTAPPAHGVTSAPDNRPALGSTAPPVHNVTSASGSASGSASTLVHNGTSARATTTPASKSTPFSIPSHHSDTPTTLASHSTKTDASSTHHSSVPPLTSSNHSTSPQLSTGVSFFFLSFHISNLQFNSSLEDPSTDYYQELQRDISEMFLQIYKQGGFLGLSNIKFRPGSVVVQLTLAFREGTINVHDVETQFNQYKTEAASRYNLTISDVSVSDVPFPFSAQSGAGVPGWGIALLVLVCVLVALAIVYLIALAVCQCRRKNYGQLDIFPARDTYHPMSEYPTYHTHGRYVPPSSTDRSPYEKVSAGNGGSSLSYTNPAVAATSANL

Binder | binding result
Monoclonal antibody SN-102 (antibody, V domains shown, Mouse monoclonal antibody from a hybridoma; it was purified on Protein G and detected with anti-mouse IgG; The array assay used culture supernatant diluted 10-fold; also called antibody of hybridoma strain 3C10-E11) VH: EVQLQQSGAELVKPGASVKLSCTASGFNIKDYYMHWVKQRTEQGLEWIGRIDPEDGETKYAPKFQGKAIITADTSSNTAYLQLSSLTSEDTAVYYCVHFYYGYDVGRGYWGQGTTLTVSS VL: DIVMSQSPSSLAVSVGEKVTMSCKSSQSLLYSSNQKNYLAWYQQKPGQSPKLLIYWASTRESGVPDRFTGSGSGTDFTLTISSVKAEDLAVYYCQQYYSYTFGGGTKLEIK | binds
Monoclonal antibody SN-101 (antibody, V domains shown, Mouse monoclonal antibody from a hybridoma; it was purified on Protein G and detected with anti-mouse IgG; The array assay used culture supernatant diluted 10-fold; also called antibody of hybridoma strain 3A9-4B1 (NITE BP-01845)) VH: EVNLEESGGGLVQPGGSMKLSCVASGFTFSNYWMNWVRQSPEKGLEWVAQIRLKSDNYATHYAESVKGRFTISRDDSKSSVYLQMNNLRAEDTGIYYCTGGVFDYWGQGTTLTVSS VL: not shown | binds
